Source: patent US20240124597A1 (Bristol-Myers Squibb, published 2024)
Where a chain is given by its changes, count along the chain named. Names may count otherwise. Each block holds one binder with its values, some of them ahead of it.

Experiments:
[1] = target: T1, human-CD40-monomer protein (human, UniProt P25942 21-193, limits assumed); assay: SPR, Ab captured on protein A, hCD40 monomer 500 and 50 nM, 1:1 fit; supernatant; sup (supernatant); Vh-hz2 / Vk-hz2
T1 construct: Soluble monomer generated in house, used as SPR analyte; also called hCD40; hCD40-monomer
T1 sequence (P25942 21-193 limits assumed): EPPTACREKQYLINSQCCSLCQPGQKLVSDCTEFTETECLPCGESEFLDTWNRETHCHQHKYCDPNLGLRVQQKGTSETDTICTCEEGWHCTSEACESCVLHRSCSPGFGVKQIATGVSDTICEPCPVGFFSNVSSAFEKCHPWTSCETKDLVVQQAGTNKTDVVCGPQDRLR
Description: Titer analysis was performed using Biolayer Interferometry (BLI) on an Octet RED instrument (Fortebio) by capturing antibodies from supernatant using protein A sensor tips and measuring capture response with respect to a standard curve obtained using a control antibody sample. SPR data were obtained by capturing antibodies on a protein A surface and testing the binding of 500 nM and 50 nM injections of human-CD40 analyte, using a BIAcore™ T200 instrument (GE Healthcare). The kinetic data for the two concentrations of hCD40-monomer were fit to a 1:1 Langmuir model, to yield estimates of the kinetic and affinity values for these interactions, and for comparison of the different molecules.

[2] = target: T1, human-CD40-monomer protein; assay: SPR, Ab captured on protein A, hCD40 monomer 500 and 50 nM, 1:1 fit; supernatant
Outline: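 Antibodies captured on protein A surface; human CD40 monomer injected as analyte at 500 nM and 50 nM. Kinetic data from both concentrations fitted to 1:1 Langmuir model to estimate kinetic and affinity values. Supernatant titers determined by BLI protein A capture against a control antibody standard curve.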

hCD64 [3] = target: T2, hCD64 (human, UniProt P12314 16-288, limits assumed); assay: SPR, antibody captured on protein A, His-tagged hCD64 as analyte; %Rmax against hCD64 concentration
T2 construct: His-tagged; also called hFcγRI
T2 sequence (P12314 16-288 limits assumed): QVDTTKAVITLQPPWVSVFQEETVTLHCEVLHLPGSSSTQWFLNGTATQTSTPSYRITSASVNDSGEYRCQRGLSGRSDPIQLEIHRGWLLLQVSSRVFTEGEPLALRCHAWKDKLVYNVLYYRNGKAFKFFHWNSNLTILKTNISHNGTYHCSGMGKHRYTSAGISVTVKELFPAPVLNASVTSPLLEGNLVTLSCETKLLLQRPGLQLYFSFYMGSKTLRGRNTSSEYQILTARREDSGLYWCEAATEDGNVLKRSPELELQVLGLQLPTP
Description: (§1) FcγR binding SPR: FcγR binding can be measured in vitro using purified FcγRs using methods, such as BIAcore™ surface plasmon resonance (SPR). One method tests the binding of purified His-tagged FcγR proteins (FcγR-his) to antibodies that are captured on a sensor surface containing protein A which has been immobilized using standard ethyl(dimethylaminopropyl) carbodiimide (EDC)/N-hydroxysuccinimide (NHS) chemistry with ethanolamine blocking. These experiments are performed on a BIAcore™ T200 instrument (GE Healthcare, Marlborough, MA) at 25° C. For example, samples of purified antibody at 3 μg/ml concentration are first captured on the immobilized protein A surface using a 15 second (s) contact time at 10 μl/min flow rate. This is followed by the binding of purified FcγR-His proteins at various concentrations, such as 10 μM-1.5 nM (2:1 dilution series) or 10 μM-13.7 nM (2:1 dilution series), using 120 s association and dissociation times at a flow rate of 30 μ/min. All steps are performed in a running buffer consisting of 10 mM NaPO₄, 130 mM NaCl, 0.05% p20 (PBS-T) pH 7.1. FcγR proteins tested in these studies include the “high affinity” FcγR CD64 (hFcγRI), as well as the “low affinity” FcγRs CD32a-H131 (FcγRIIa-H131), CD32a-R131 (FcγRIIa-R131), CD32b (FcγRIIb), CD16a-V158 (FcγRIIIa-V158), and CD16a-F158 (FcγRIIIa-F158), which were expressed and purified in house. […]

[4] = target: T3, human CD40 on cells (tonsillar B cells, immature dendritic cells, Ramos-Blue cells) (human, UniProt P25942 21-277); assay: cell-based or functional assay
T3 sequence (P25942 21-277 limits assumed): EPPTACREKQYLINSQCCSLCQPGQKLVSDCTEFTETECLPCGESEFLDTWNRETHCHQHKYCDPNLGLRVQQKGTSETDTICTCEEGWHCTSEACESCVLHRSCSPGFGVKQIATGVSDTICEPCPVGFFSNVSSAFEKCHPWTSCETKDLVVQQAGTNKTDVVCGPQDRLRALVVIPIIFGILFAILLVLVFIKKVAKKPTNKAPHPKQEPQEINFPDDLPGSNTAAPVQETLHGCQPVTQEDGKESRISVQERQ

hCD16a-F158 = target: T4, hCD16a-F158 (human, UniProt P08637 17-208); assay: SPR, antibody captured on protein A, His-tagged FcγR as analyte; 1:1 steady state fit
T4 construct: His-tagged; F158 allotype; also called FcγRIIIa-F158
T4 sequence (P08637 17-208 limits assumed): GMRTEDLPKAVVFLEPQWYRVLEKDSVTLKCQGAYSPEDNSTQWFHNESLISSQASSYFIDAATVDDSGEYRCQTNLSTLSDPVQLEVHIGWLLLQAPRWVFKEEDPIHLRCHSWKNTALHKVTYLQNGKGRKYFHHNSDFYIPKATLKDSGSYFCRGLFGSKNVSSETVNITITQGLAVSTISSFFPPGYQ
Description: (§2) FcγR binding SPR: FcγR binding can be measured in vitro using purified FcγRs using methods, such as BIAcore™ surface plasmon resonance (SPR). One method tests the binding of purified His-tagged FcγR proteins (FcγR-his) to antibodies that are captured on a sensor surface containing protein A which has been immobilized using standard ethyl(dimethylaminopropyl) carbodiimide (EDC)/N-hydroxysuccinimide (NHS) chemistry with ethanolamine blocking. These experiments are performed on a BIAcore™ T200 instrument (GE Healthcare, Marlborough, MA) at 25° C. For example, samples of purified antibody at 3 μg/ml concentration are first captured on the immobilized protein A surface using a 15 second (s) contact time at 10 μl/min flow rate. This is followed by the binding of purified FcγR-His proteins at various concentrations, such as 10 μM-1.5 nM (2:1 dilution series) or 10 μM-13.7 nM (2:1 dilution series), using 120 s association and dissociation times at a flow rate of 30 μ/min. All steps are performed in a running buffer consisting of 10 mM NaPO₄, 130 mM NaCl, 0.05% p20 (PBS-T) pH 7.1. FcγR proteins tested in these studies include the “high affinity” FcγR CD64 (hFcγRI), as well as the “low affinity” FcγRs CD32a-H131 (FcγRIIa-H131), CD32a-R131 (FcγRIIa-R131), CD32b (FcγRIIb), CD16a-V158 (FcγRIIIa-V158), and CD16a-F158 (FcγRIIIa-F158), which were expressed and purified in house. SPR data are fit to either a 1:1 Langmuir model, or a 1:1 steady state model using BIAcore™ T200 evaluation software to obtain values for the association rate constant (ka), dissociation rate constant (kd) and dissociation constant (KD).

hCD32a-R131 = target: T5, hCD32a-R131 (human, UniProt P12318 34-217, limits assumed); assay: as above
T5 construct: His-tagged; R131 allotype; also called FcγRIIa-R131
T5 sequence (looked up): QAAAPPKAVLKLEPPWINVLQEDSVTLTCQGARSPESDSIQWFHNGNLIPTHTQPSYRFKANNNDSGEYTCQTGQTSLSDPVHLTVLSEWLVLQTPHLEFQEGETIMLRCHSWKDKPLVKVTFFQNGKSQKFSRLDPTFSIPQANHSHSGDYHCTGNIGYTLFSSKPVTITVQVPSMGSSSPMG
Description: as §2

hCD32b = target: T6, hCD32b (human, UniProt P31994 43-217, limits assumed); assay: as above
T6 construct: His-tagged; also called FcγRIIb
T6 sequence (looked up): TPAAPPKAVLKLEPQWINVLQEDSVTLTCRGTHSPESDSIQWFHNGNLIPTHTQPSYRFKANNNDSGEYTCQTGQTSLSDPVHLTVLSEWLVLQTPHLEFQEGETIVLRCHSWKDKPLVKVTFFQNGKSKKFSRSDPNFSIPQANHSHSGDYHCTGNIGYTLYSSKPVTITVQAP
Description: as §2

hCD32a-H131 = target: T7, hCD32a-H131 (human, UniProt P12318 34-217, limits assumed); assay: as above
T7 construct: His-tagged; H131 allotype; also called FcγRIIa-H131
T7 sequence (looked up): T5 sequence (looked up) with R134H
Description: as §2

hCD16a-V158 = target: T8, hCD16a-V158 (human, UniProt P08637 17-208); assay: as above
T8 construct: His-tagged; V158 allotype; also called FcγRIIIa-V158
T8 sequence (P08637 17-208 F176V limits assumed): as the sequence (P08637 17-208 limits assumed) above, with F160V counted along it
Description: as §2

[5] = target: T1, human-CD40-monomer protein; assay: SPR, purified Ab captured on protein A, hCD40 monomer 500-3.9 nM, 25 C, 1:1 Langmuir fit
Description: (§3) Based on the sequences, titer, and SPR binding data, antibodies were selected for larger scale expression, purification, and further characterization. SPR analysis using purified antibodies was performed by capturing antibodies on a protein A surface, with binding of a 500-3.9 nM (2:1) dilution series of human-CD40 monomer, at either 25° C. or 37° C. in PBS-T pH 7.1 buffer; the titration data was fit to a 1:1 Langmuir model.
(§4) SPR data are fit to a 1:1 Langmuir model using BIAcore™ T200 evaluation software to obtain values for the association rate constant (ka), dissociation rate constant (kd) and dissociation constant (KD).

hCD64 [6] = target: T2, hCD64; assay: SPR, antibody captured on protein A, His-tagged FcγR as analyte; 1:1 Langmuir fit
Description: as §1

hCD64 [7] = target: T2, hCD64; assay: SPR, Ab captured on protein A, hCD64-His 10 µM-1.5 nM as analyte
Description: as §1

[8] = target: T3, human CD40 on cells (tonsillar B cells, …); assay: cell-based or functional assay; remark: listed apart in the source
[9] = target: T1, human-CD40-monomer protein; assay: SPR, purified Ab captured on protein A, hCD40 monomer 500-3.9 nM, 37 C, 1:1 Langmuir fit
Description: as §3, §4

kon [1]: 200000 M⁻¹ s⁻¹
Kd [2]: 3.2 nM
koff [2]: 0.00064 s⁻¹
B1: Y12XX-hz16 (antibody, human IgG1, kappa, V domains shown)
VH: QVQLVQSGAEVKKPGSSVKVSCKASGYAFTSYWMHWVRQRPGQGLEWMGFINPTTGYSEYNQKFKDRVTITADKSTSTAYMELSSLRSEDTAVYYCARWGLPPFAYWGQGTLVTVSS
VL: DIQMTQSPSFLSASVGDRVTITCKASQDVSTAVAWYQQKPGKAPKLLIYSASYRYTGVPSRFSGSGSGTDFTLTISSLQPEDFATYYCQQHYSTPWTFGGGTKVEIKR
notes: Humanized, IgG1-P238K; supernatant sample

EC50 (read off the curve) (hCD64 [3]): ~30 nM
Inhibition of B cell proliferation induced by soluble CD40L trimer, Average (IC50 ng/ml) [4]: 6.7 ng/mL
Kd (hCD16a-F158): > 50000 nM
Kd (hCD32a-R131): > 50000 nM
Kd (hCD32b): > 50000 nM
Kd (hCD32a-H131): > 50000 nM
Kd (hCD16a-V158): > 50000 nM
Kd [5]: 3.1 nM
koff [5]: 0.00069 s⁻¹
kon [5]: 220000 M⁻¹ s⁻¹
Kd (hCD64 [6]): 25 nM
Kd [2]: 3.5 nM
koff [2]: 0.00062 s⁻¹
kon [2]: 180000 M⁻¹ s⁻¹
fold weaker binding compared to wild type (control-IgG1) (hCD64 [7]): 125 fold
Potency for inhibition of CD40L expressing CHO cells stimulation of B cell proliferation (IC50 ng/ml) [8]: 38.1 ng/mL
Kd [9]: 8.5 nM
koff [9]: 0.0037 s⁻¹
kon [9]: 440000 M⁻¹ s⁻¹
B2: Y12XX-hz28-P238K (antibody, human IgG1, kappa)
heavy: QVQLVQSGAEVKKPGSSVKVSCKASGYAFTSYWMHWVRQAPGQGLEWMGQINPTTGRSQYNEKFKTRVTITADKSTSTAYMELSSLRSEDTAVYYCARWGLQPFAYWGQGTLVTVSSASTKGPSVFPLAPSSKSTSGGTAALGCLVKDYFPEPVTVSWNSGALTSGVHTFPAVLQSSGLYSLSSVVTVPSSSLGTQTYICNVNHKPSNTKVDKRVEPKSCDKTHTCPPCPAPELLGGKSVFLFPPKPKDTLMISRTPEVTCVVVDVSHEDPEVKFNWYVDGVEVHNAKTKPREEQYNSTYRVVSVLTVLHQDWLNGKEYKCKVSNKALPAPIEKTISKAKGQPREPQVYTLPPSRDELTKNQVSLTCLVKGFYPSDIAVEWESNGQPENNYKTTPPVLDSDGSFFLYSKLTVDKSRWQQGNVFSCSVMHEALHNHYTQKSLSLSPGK
light: DIQMTQSPSFLSASVGDRVTITCKASQDVSTAVAWYQQKPGKAPKLLIYSASYRYTGVPSRFSGSGSGTDFTLTISSLQPEDFATYYCQQHYSTPWTFGGGTKVEIKRTVAAPSVFIFPPSDEQLKSGTASVVCLLNNFYPREAKVQWKVDNALQSGNSQESVTEQDSKDSTYSLSSTLTLSKADYEKHKVYACEVTHQGLSSPVTKSFNRGEC
notes: also called Y12XX-hz28-IgG1-P238K; Y12XX-hx28-IgG1-P238K
